Among the data in article PMC9481576 are Ki values, retold here.

This test has as its target human α-thrombin (human) (UniProt P00734). In words: enzyme inhibition assay (chromogenic thrombin amidolytic activity); 0.14 nM human α-thrombin, 100 μM N-(p-Tosyl)-GPR-pNA, varying concentrations of inhibitor; 50 mM Tris-HCl, 50 mM NaCl, pH 8; absorption at 405 nm; Ki from a Morrison equation.
wildtype chimadanin (natural protein) displayed a Ki of 12.9 nM.
For “madanin-1 with sTyr at Tyr35 (natural protein)” the value was 6.1 nM.
For “madanin-1 sulfated at both Tyr32 and Tyr35 (natural protein)” the value was 0.5 nM.
For the substance “madanin-1 with sTyr at Tyr32 (natural protein)”, the inhibitory constant (Ki) was determined as 1.3 nM.
For wildtype madanin-1 (natural protein) the value was 16 nM.
The substance “chimadanin with sTyr at Tyr28 (natural protein)” showed a Ki of 0.6 nM.
For “chimadanin with sTyr at Tyr31 (natural protein)” the value was 1.5 nM.
Next, “chimadanin sulfated at both Tyr28 and Tyr31 (natural protein)”: 0.1 nM.
